Laboratory results as given in patent US20130331333A1 (HADASIT MEDICAL RESEARCH SERVICES AND DEVELOPMENT, published 2013).
Substitutions are numbered along the chain they refer to.

T1: Etk/Bmx (epithelial tyrosine kinase), wild type (UniProt P51813 1-675)
T1 construct: Plasmids after Tsai et al. 2000; also called wt-Etk
T1 sequence (looked up): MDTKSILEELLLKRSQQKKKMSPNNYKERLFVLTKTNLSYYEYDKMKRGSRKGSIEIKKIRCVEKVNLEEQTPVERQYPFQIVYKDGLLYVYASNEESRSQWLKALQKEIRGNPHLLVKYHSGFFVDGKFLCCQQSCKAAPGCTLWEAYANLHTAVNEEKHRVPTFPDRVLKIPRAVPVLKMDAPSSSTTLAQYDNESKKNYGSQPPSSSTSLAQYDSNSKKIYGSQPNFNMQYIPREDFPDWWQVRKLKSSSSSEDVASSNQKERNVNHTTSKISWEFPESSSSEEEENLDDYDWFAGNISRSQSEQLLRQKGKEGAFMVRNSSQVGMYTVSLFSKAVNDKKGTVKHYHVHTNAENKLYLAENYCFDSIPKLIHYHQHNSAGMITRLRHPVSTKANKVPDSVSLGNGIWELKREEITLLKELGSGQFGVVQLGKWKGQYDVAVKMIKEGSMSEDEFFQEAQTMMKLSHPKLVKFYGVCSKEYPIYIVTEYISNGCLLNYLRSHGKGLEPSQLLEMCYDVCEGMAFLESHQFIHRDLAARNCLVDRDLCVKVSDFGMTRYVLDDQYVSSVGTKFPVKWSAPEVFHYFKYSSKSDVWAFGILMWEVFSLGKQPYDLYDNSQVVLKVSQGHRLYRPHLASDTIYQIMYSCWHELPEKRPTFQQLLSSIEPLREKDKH

T2: wild-type protease-activated receptor 2 (wt hPar2) (human, UniProt P55085 37-397)
T2 construct: whole, on cells; Species read from the name hPar2
T2 sequence (looked up): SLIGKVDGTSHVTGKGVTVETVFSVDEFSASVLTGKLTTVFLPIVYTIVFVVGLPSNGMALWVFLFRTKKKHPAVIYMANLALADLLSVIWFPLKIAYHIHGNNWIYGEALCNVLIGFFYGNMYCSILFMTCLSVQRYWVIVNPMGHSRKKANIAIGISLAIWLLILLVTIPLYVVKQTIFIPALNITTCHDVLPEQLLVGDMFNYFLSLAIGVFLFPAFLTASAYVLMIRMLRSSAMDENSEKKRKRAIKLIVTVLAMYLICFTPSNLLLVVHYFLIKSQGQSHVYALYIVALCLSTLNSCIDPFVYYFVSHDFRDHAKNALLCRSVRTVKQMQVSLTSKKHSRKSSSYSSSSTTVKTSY

T3: HA-tagged wt hPar1 (human, UniProt P25116 42-425)
T3 construct: whole, on cells; Tested in lysates of transfected cells; also called HA-wt hPar1; HA-wthPar1; not shown: HA tag added downstream of the ATG start codon
T3 sequence (looked up): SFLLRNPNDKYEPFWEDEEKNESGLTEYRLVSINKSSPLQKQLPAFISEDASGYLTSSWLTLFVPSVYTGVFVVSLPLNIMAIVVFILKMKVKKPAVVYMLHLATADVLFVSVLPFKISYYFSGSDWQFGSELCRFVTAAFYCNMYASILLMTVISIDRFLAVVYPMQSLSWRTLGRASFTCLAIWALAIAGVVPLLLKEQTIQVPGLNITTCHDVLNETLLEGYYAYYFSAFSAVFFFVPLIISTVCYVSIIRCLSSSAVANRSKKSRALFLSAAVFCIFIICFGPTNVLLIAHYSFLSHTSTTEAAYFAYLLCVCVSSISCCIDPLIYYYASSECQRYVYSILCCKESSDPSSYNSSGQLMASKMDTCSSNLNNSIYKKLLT

B1: HA-tagged mutant hPar1-7A (receptor, human, UniProt P25116 42-425, looked up)
chain: T3 sequence (looked up) with C337A, Q338A, R339A, Y340A, V341A, Y342A, S343A
notes: whole, on cells; Tested in lysates of transfected cells; also called HA-hPar1-7A; PAR1A7; not shown: HA tag
B2: GST-PH-Vav3 (other, UniProt Q9UKW4 400-502, looked up)
chain: RPQGDGEIRITTLDKHTKQERHIFLFDLAVIVCKRKGDNYEMKEIIDLQQYKIANNPTTDKENKKWSYGFYLIHTQGQNGLEFYCKTKDLKKKWLEQFEMALS
notes: domain: PH domain; also called PH-domain-Vav3; Vav3-PH-domain; not shown: GST tag

Experiments:
[1] = target: T1, Etk/Bmx (epithelial tyrosine kinase), …; experiment: co-immunoprecipitation with anti-HA, anti-Bmx blot, MCF7 clones after PAR1 activation
Procedure: After overnight incubation, Protein A-Sepharose beads (Amersham Pharmacia Biotech, Buckinghamshire, UK) were added to the suspension (50 μl), which was rotated at 4° C. for 1 h. The immunocomplexes were eluted and run electrophoretically on a 10% SDS-PAGE gel, followed by transfer to an Immobilon-P membrane (Millipore). Membranes were blocked and probed with 1 μg/ml amounts of the appropriate antibodies as follows: anti-PAR₁ thrombin receptor mAb, (ATAP, from Santa Cruz, 1:1000); anti-Shc (BD, 1:2000); anti-Bmx (Transduction Laboratories, 1:1000) or anti-PY (Upstate 4G10, 1:2500), suspended in 3% BSA in 10 mM Tris-HCl, pH 7.5, 100 mM NaCl, and 0.5% Tween-20. After washes the blots were incubated with secondary antibodies conjugated to horseradish-peroxidase. Immunoreactive bands were detected by enhanced chemiluminescence (ECL). Membranes were stripped and incubated with anti-IP antibodies to ensure equal protein load.
Based on the competition assay mutated hPar1 constructs with successive replacement of seven residues (378-384; CQRYVYS) were prepared. […] The clones expressing either HA-tagged wt hPar1 or a mutant construct of HA-hPar1-7A were activated and further analyzed for co-immunoprecipitation (IP) of PAR₁ with Etk/Bmx. […] The blots were detected by anti-Bmx (Transduction Laboratories, BD Biosciences, CA) for the identification of Etk/Bmx-associated PAR₁. […]

Akt (PKB) = Akt (PKB) (UniProt P31749 1-480, limits assumed); experiment: co-immunoprecipitation of Akt and PAR1 in transfected HU cells
Chain of Akt (PKB) (P31749 whole entry): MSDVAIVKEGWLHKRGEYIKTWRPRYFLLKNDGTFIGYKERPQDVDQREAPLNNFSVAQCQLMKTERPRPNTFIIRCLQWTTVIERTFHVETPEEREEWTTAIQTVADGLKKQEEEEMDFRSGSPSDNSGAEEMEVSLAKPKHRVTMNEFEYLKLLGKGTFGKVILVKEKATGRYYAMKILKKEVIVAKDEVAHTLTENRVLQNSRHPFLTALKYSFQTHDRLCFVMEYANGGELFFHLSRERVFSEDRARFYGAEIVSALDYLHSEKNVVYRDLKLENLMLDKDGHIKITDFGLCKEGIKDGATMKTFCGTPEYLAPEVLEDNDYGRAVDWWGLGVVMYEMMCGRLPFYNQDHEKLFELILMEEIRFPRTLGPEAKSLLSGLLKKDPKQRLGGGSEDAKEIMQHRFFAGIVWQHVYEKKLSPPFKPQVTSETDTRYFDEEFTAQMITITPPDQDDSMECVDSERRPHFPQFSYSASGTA
Procedure: Western blot and immunoprecipitation analysis: Cells were activated with agonist peptide […] (SEQ ID NO: 35) for the indicated periods of time and solubilized in lysis buffer containing 10 mM Tris-HCl, pH 7.4, 150 mM NaCl, 1 mM EDTA, 1% TritonX-100, and protease inhibitors ([…] aprotinin, 1 mM phenylmethylsulfonylfluoride, and […] leupeptin) at 4° C. for 30 min. The cell lysates were subjected to centrifugation at 12,000 rpm at 4° C. for 20 min. We used 400 μg of the supernatants with anti-PAR₁ (ATAP, Santa Cruz, Calif. 1 μg), anti-HA (anti-HA sc-7392; Santa Cruz, Calif.), anti-Shc or Etk/Bmx antibodies (10 μg/ml). After overnight incubation, Protein A-Sepharose beads (Amersham Pharmacia Biotech, Buckinghamshire, UK) were added to the suspension (50 μl), which was rotated at 4° C. for 1 h. The immunocomplexes were eluted and run electrophoretically on a 10% SDS-PAGE gel, followed by transfer to an Immobilon-P membrane (Millipore). […] Immunoreactive bands were detected by enhanced chemiluminescence (ECL). […]
(§1) Namely, without wishing to be bound by theory the PAR₁-C-tail appears to be an anchor region for association with PH-domain containing proteins. For this purpose, the association between Akt (which is ubiquitously expressed in the cells) and PAR₁ was analyzed, following activation. […]

[2] = target: T2, wild-type protease-activated receptor 2 …; experiment: cell lysates applied on GST immobilized PH-domain columns (PAR2)
[3] = target: B1; experiment: cell lysates applied on GST-PH-Vav3
Procedure: GST fusion protein columns. Fusion proteins were purified from transformed Escherichia coli bacteria that had been stimulated with isopropyl-β-D-thio-galactopyranoside (IPTG) at a concentration of […]. Bacteria were lysed according to published procedures, and then immobilized on glutathione Sepharose beads (Pharmacia). Briefly, MDA-MB-435 cell lysates were applied to GST-PAR1C-tail or GST control columns. After 2 h binding periods to the designated protein/s cell lysates to the columns, a washing step was performed. The washes (×3) were carried out using a “wash buffer” including: 100 mM NaCL, 20 mM EDTA, 10 mM Tris, pH 8.0 and 1% Triton ×100. This step was performed in order to wash out all non-specific proteins, leaving the GST-PAR₁-C-tail column firmly bound to targeted cell lysate proteins. Next, elution of bound proteins was performed via the addition of gel “sample buffer” and appropriate boiling. The samples were run electrophoretically on SDS-PAGE gels, followed by immunoblotting with the indicated antibodies and ECL detection. GST-PH-Etk/Bmx. […]
as §1

HA-tagged wt hPar1 = target: T3, HA-tagged wt hPar1; experiment: lysates of cells transfected with HA-tag-hPar1 applied on GST-PH-Vav3
Procedure: GST fusion protein columns. Fusion proteins were purified from transformed Escherichia coli bacteria that had been stimulated with isopropyl-β-D-thio-galactopyranoside (IPTG) at a concentration of […]. Bacteria were lysed according to published procedures, and then immobilized on glutathione Sepharose beads (Pharmacia). Briefly, MDA-MB-435 cell lysates were applied to GST-PAR1C-tail or GST control columns. After 2 h binding periods to the designated protein/s cell lysates to the columns, a washing step was performed. The washes (×3) were carried out using a “wash buffer” including: 100 mM NaCL, 20 mM EDTA, 10 mM Tris, pH 8.0 and 1% Triton ×100. This step was performed in order to wash out all non-specific proteins, leaving the GST-PAR₁-C-tail column firmly bound to targeted cell lysate proteins. Next, elution of bound proteins was performed via the addition of gel “sample buffer” and appropriate boiling. The samples were run electrophoretically on SDS-PAGE gels, followed by immunoblotting with the indicated antibodies and ECL detection. GST-PH-Etk/Bmx. The PH domain in Etk/Bmx was bound to GST column as previously described (Chen R, et al. (2001) Nat Cell Biol. 3: 439-444).
Next, a panel of cell-lines was transfected with HA-tag-hPar1. Cell lysates were prepared and applied onto GST-PH-Akt or GST-PH-Vav₃. […]

| Binder | binding result [1] | binding result (Akt (PKB)) | binding result [2] | binding result [3] | binding result (HA-tagged wt hPar1) |
| --- | --- | --- | --- | --- | --- |
| B1 | no binding | no binding | – | – | – |
| B2 | – | – | binds | no binding | binds |
